Results as given in patent US8410061.

What was measured:
[1] = molecular target: patched-1 of C3H10T1/2 cells (endogenous hedgehog receptor) (mouse (cell line C3H10T1/2 is stated to be mouse)) (UniProt Q61115); experiment: cell-based or functional assay
[2] = molecular target: Myc-tagged patched-1 on transiently transfected human embryonic kidney 293 (EBNA-293) cells; experiment: FACS competition with Shh-Ig (5 nM) on 293 cells transfected with Myc-tagged patched-1
Chain of Myc-tagged patched-1 on transiently transfected human embryonic kidney 293 (EBNA-293) cells (Q61115 whole entry): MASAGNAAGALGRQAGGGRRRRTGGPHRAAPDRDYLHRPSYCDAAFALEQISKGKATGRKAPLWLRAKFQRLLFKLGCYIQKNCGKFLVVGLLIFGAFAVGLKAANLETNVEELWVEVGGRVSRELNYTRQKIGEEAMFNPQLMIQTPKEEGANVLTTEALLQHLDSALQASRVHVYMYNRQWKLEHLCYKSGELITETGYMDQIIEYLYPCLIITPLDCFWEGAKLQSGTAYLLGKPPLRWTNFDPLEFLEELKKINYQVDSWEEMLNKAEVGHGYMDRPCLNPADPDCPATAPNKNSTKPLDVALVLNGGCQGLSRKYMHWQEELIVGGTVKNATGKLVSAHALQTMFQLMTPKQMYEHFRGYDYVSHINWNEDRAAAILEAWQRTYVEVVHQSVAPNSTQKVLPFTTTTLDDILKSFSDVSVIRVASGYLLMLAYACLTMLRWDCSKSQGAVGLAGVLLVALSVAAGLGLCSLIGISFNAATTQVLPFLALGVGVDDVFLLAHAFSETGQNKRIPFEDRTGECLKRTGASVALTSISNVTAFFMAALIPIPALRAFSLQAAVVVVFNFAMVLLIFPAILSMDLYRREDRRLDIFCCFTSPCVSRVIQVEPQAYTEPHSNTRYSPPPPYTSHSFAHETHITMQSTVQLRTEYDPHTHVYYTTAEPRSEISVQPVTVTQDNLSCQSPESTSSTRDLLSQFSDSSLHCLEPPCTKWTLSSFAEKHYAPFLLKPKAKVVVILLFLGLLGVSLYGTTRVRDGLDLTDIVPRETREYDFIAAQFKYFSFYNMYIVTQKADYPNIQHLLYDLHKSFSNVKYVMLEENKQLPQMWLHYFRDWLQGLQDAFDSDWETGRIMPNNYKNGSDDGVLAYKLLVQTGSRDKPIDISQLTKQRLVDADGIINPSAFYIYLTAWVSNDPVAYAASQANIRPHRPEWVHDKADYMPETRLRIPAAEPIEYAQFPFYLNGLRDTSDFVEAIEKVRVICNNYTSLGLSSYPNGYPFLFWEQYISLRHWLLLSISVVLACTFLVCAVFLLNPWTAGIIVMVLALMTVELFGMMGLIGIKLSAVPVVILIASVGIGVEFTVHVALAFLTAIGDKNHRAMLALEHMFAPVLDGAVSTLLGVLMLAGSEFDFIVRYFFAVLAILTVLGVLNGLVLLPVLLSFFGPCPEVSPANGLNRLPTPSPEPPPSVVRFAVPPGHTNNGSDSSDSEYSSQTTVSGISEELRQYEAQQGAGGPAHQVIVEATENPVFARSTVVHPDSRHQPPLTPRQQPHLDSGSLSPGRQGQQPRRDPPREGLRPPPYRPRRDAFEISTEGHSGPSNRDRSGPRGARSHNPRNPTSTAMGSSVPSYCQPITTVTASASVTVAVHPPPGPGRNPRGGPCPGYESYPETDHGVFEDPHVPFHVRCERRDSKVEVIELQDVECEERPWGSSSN

Chain of patched-1 of C3H10T1/2 cells (endogenous hedgehog receptor) (mouse (cell line C3H10T1/2 is stated to be mouse)) (Q61115 whole entry): as above

Row | Substance | IC50 [2] | block of AP activity induced by mature Shh in C3H10T1/2 cells, IC50 [1] | other results
1 | Shh (C1S), Sonic hedgehog N-terminal domain with the N-terminal cysteine replaced by serine (from UniProt Q15465 25-197) (ligand) | 1 nM |  | block of AP induction by human Shh in C3H10T1/2 cells, IC50 [1]: 500000 nM
2 | Shh (N-5), Sonic hedgehog variant lacking residues CGPGR from the N-terminus (from UniProt Q15465 29-197) (ligand) |  | 80 nM | 
3 | Shh (N-9/C-3), Sonic hedgehog variant lacking … from the N-terminus and SGG from the C-terminus (from UniProt Q15465 33-194) (ligand) |  | 80 nM | 
4 | Shh (N-10), Sonic hedgehog variant lacking the first 10 N-terminal amino acids (from UniProt Q15465 34-197) (ligand) |  |  | block of AP induction by mature Shh (2.5 ug/ml) in C3H10T1/2 cells, IC50 [1]: 250 nM
5 | human mature Sonic hedgehog N-terminal domain (from UniProt Q15465 24-197) (ligand) | 3.5 nM |  | 
